B1: M5 protein, intact wild type (aa 43–377) (natural protein)
chain: AVTRGTINDPQRAKEALDKYELENHDLKTKNEGLKTENEGLKTENEGLKTENEGLKTEKKEHEAENDKLKQQRDTLSTQKETLEREVQNTQYNNETLKIKNGDLTKELNKTRQELANKQQESKENEKALNELLEKTVKDKIAKEQENKETIGTLKKILDETVKDKIAKEQENKETIGTLKKILDETVKDKLAKEQKSKQNIGALKQELAKKDEANKISDASRKGLRRDLDASREAKKQLEAEHQKLEEQNKISEASRKGLRRDLDASREAKKQLEAEQQKLEEQNKISEASRKGLRRDLDASREAKKQVEKALEEANSKLAALEKLNKELEESKK
notes: source: E. coli BL21 (Gold), purified; not shown: His6, C-terminal, kept
B2: M5 protein fragment (aa 94–175) (domain or fragment)
chain: NEGLKTEKKEHEAENDKLKQQRDTLSTQKETLEREVQNTQYNNETLKIKNGDLTKELNKTRQELANKQQESKENEKALNELL
notes: source: E. coli BL21 (Gold), purified
B3: M6 protein fragment (aa 74–157) (domain or fragment)
chain: NDKLTTENNNLTDQNKNLTTENKNLTDQNKNLTTENKNLTDQNKNLTTENKELKAEENRLTTENKGLTKKLSEAEEEAANKERE
notes: as for B2
B4: FbaA (57–130), wild type (domain or fragment)
chain: NWHHIDKDGLIPLGISLEAAKEEFKKEVEESRLSEAQKETYKQKIKTAPDKDKLLFTYHSEYMTAVKDLPASTE
notes: source: E. coli BL21 (Gold), purified; not shown: His6, N-terminal, kept
B5: M6 protein, intact wild type (aa 43–452) (natural protein)
chain: RVFPRGTVENPDKARELLNKYDVENSMLQANNDKLTTENNNLTDQNKNLTTENKNLTDQNKNLTTENKNLTDQNKNLTTENKELKAEENRLTTENKGLTKKLSEAEEEAANKERENKEAIGTLKKTLDETVKDKIAKEQESKETIGTLKKTLDETVKDKIAKEQESKETIGTLKKTLDETVKDKIAKEQESKETIGTLKKILDETVKDKIAREQKSKQDIGALKQELAKKDEGNKVSEASRKGLRRDLDASREAKKQVEKDLANLTAELDKVKEEKQISDASRQGLRRDLDASREAKKQVEKALEEANSKLAALEKLNKELEESKKLTEKEKAELQAKLEAEAKALKEQLAKQAEELAKLRAGKASDSQTPDAKPGNKVVPGKGQAPQAGTKPNQNKAPMKETKRQLPST
notes: as for B1

Legend:
factor H (intact) = target: T1, factor H (intact) (human, UniProt P08603 19-1231); experiment: ELISA; M, Enn or FbaA protein coated on wells (20 μg/ml in PBS pH 7.2, overnight 4 °C); soluble intact factor H 10 μg/ml, 1 h, RT; bound FH detected with mouse monoclonal anti-human FH and HRP anti-mouse IgG; uncoated wells subtracted; values normalized to wild type; settings: both partners purified
T1 construct: also called FH; intact FH; source: bought: Complement Technology

crystal structure = target: the molecule itself; experiment: crystal structure

T1 sequence (P08603 19-1231): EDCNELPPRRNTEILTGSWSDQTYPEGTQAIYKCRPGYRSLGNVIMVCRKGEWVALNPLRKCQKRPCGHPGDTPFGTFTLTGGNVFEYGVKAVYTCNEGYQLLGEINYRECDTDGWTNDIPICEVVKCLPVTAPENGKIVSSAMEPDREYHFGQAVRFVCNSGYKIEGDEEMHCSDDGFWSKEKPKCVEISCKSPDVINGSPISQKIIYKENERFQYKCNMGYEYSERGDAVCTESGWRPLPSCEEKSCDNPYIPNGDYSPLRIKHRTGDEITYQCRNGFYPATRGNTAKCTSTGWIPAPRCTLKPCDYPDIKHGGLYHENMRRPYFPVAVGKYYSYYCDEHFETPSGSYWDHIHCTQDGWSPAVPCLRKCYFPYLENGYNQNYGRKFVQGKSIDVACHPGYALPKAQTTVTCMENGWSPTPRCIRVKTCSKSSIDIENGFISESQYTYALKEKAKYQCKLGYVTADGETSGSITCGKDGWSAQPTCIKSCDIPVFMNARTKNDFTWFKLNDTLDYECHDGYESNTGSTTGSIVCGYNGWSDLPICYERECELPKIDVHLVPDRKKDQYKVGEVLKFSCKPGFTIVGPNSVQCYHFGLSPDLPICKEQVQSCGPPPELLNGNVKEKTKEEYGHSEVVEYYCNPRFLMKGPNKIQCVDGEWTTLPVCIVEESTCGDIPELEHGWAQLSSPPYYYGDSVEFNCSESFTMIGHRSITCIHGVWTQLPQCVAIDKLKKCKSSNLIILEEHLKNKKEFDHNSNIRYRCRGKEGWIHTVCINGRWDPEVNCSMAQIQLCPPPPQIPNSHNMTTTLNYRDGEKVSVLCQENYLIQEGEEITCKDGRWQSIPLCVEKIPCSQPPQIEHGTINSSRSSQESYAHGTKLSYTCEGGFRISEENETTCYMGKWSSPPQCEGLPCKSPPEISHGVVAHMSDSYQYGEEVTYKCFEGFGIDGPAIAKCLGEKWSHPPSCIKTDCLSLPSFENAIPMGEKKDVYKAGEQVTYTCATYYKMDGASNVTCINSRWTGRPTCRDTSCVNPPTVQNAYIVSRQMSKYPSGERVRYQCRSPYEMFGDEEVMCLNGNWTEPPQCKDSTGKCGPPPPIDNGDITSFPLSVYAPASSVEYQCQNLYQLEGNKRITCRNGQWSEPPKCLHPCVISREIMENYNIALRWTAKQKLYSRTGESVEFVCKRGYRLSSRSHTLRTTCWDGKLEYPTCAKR

Row | Binder | binding result (factor H (intact)) | stoichiometry N (crystal structure)
1 | B1 | binds | –
2 | B2 | – | 2
3 | B3 | – | 2
4 | B4 | binds | –
5 | B5 | binds | –

Source: paper doi:10.1101/2025.08.05.668778 (bioRxiv, 2025)
